Test results reported in the nanobody polyreactivity screen of Harvey et al. (2022).

Experiment: yeast display, Sf9 membrane polyspecificity reagent, FACS + sequencing; frameworks hold sequencing errors
Summary of the method: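 After 36–48 hours of galactose induction, yeast (Saccharomyces cerevisiae BJ5465) displaying a synthetic nanobody library were stained at 4 °C for 1 hour with 10% biotinylated, detergent-solubilized Sf9 membrane reagent. Streptavidin microbeads enriched the stained cells before FACS sorting into low and high (top ~1%) gates on anti-HA and streptavidin fluorescence. Each clone's polyreactivity label reflects its gate of origin.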

| Sequence | polyreactivity (PSR sort gate) |
| --- | --- |
| QVQLVESGGGLVQAGGSLRLICAASGRICISNAMGWYRQAPGKERELVAAITWIGDRTYYADSVKGRFTISRDNAKNTVYLQMISLKPEDTAVYYCAADSYSPYTMDYWRQGTQVTVSS | high polyreactivity |
| QVQLVESGGGLVQAGGSLRLSCAASGITFYAYAIGWYRQAPGKERELVAAITSSGGNTYYADSVKGRFTISRDNAKNTVYLQMKSLKPEDTAVYYCNIRRYWWWQMGYWGQGTQVTVSS | high polyreactivity |
| QVQLVESGGGLVQAGGSLRLSCAASGSIFHLYAMGWYRQAPGKERELVAAITWTGGSTYYADSVKGRFTISRDNAKNTVYLQMNSLKPEDTAVYYCAARQQVRLRPGPLYYYWGQGTQVTVSS | high polyreactivity |
| QVQLVESGGGLVQAGGSLRLSCAASGFTFATYAMGWYRQAPGKERELVAAITSGDRTKYADSVKGRFTISRDNAKNTVYLQMNSLKPEDTAVYYCAATTYKVSTGYGYWGQGTQVTVSS | high polyreactivity |
| QVQIVESGGGLVQAGGSLRLRCAASGSIFSTYAMGWYRQEPGKERELVADISGRVGSTYYADSVKGRFTISRDNAKNTVYLQMNSLKPEDTAVYYCAAALDFWPGYEYYYWGQGTQVTVSS | low polyreactivity |
| QVQLVESGGGLVQAGGSLRLSCAASGIIFRLYAMGWYRQAPGKERELVAAITSRGGSTYYADSVKGRFTISRDNAKKTVYLQMNSLKPEDTAVYYCAARPVYSGYDYWGQGTQVTVSS | high polyreactivity |
| QVQLVESGGGLVQAGGSLRLSCAASGITFTGYAMGWYRQAPGKERELVAVISETGGSTYADSVKGRFTISRDNAKNTVYLQMNSLKPEDTAVYYCAADPHDTVRHDALVELEYWGQGTQVTVSS | low polyreactivity |
| QVQLGESGGGLVQAGGSLRLSCAASGITFNGYAMGWSRQAPGKERQLVASAIRGTSGSTYYADSVKGRFTISRDNAKNTDYLQMNSLKPEDTTVYYCNADIVIQGVIYYYRNFEYWGQGTQVTVSS | low polyreactivity |
| QVQLVESGGGLVQAGGSLRLSCAASGRIFKNYVMGWYRQAPGKERELVAAITYSGGSTRYADSVKGRFTISRDNAKNTVYLQMNSLKPEDTAVYYCAASRTYYRTYTFYYWGQGTQVTVSS | high polyreactivity |
| QVQLVESGVGLVQAGGTLRISCAASGSTLPGYAMGWYRPAPGKERELVAAITSRGGTTYYADSVKGRFTISRDNAKNTVYLQMNSLKPEDTAVYYCAAEVYYRSRVYPYYYSYDYWGQGTQVTVSS | high polyreactivity |
| QVQLVESGGGLVQAGGSLRLSCAAYGNTFEHYAKGWYRQAPVKERELVAAISNSGGSTYYADSVKGRFTLSRDNAKNTVYLQMNSLKPEDTAVYYCNARGRASATVRLGRPDPFGDWGQGTQVTVSS | high polyreactivity |
| QVQLVESGGGLVQAGGSLRLSCAASGITFYQYALGWYRQAPGKERELVARISYSGGSTYADSVKGRFTISRDNAKNTVYLQMNSLKPEDTAVYYCATAYRFRYGFANRYDYWGQGTQVTVSS | low polyreactivity |
| QVQLVESGGGLVQAGGSLRLSCAGSGSTSYNDMGWYRQAPGKEREMGASITSSGDDTYYADSVKGRFTISRDNAKNTVYLQMNSLKPEDTAVYYCAAEDYHRHVGSDFVIDYDYWGQGTQVTVSS | low polyreactivity |
| QVQLVESGGGLVQAGGSIRLSCAASGITFGRNTMGWYRQAPAKERELVAAIDSGGNTYADSVKGRFTISRDNAKNTVYLQMNSLKPEDTAVYYCAVDGYYLYYDYDYWGQGTQVTVSS | low polyreactivity |
| QVQLVESGGGLVQAGGSLRLSCAASGRTFVVYAMGWYRQAPGKERELVAGSGSTFYADSVKGRFTISPDNAKNTVYLQMNSLKPEDTAVYYCAADHPALYSLDWDTAYDYWGQGTQVTVSS | low polyreactivity |
| QVQLVESGGGLVQAGGSLRLSCAASGFTFFDYVMGWYRQAPGKERELVAAISRNVGSTYYADSVKGRFTISRDNAKTTVYLQMNSLKPEDTAVYYCAAEPPPYEYDYWGQGTQVTVSS | high polyreactivity |
| QVQLVESGGGLVQAGGSLRLSCAASGRTFGYNAMGWYRQAPGKVRELVAAITSGGSTYYADSVKGRFTISRDNAKNTVYLQMNSLKPEDTAVYYCNARYPGFWSGWEEYWGQGTQVTVSS | high polyreactivity |
| QVQLVESGGGLVQAGGSLRLSCAASGRTFSNYAMGWYRQAPGKERELVAAISSGGSTNYADSVKGRFTISRDNAKNTVYLLMNSLKPEDTAVYYCAARQRAYYGPGFDYWGQGTQVTVSS | low polyreactivity |
| QVQLVESGGGLVQAGGSLRLSCAASGRIFFKYAMGWYRQAPGKERELVAAISSSGGRTSYADSVKGRFTISRDNAKNTVYLQMNSLKPEDTAVYYCNVKPSARGSPLYDYWGQGTQVTVSS | high polyreactivity |
| QVQLVESGGGLVQAGGSLRLSCAASGSTFYKNAMGWYRQAPGKERELVARISGRGGSTYYADSVKCRFTISRDNAKNSVYLQMNSLKPEDTAVYYCNAVKYSSSAALYDYWGQGTQVTVSS | high polyreactivity |
| QVQLVESGGGLVQAGGSLRLICAASGRTFFPYAMGWYRQAPGKEREFFAAISTRGGSTYYADSVKGRFTISRDNAKNTVYLQMNSLKPEDTAVYYCAARFHKKGYWVYRMDYWGQGTQVTVSS | high polyreactivity |
| QVQLVESGGGLVQAGGSLRLSCAASGRTFYFYVMGWYRQAPGKERELVARISYSDGSTYYADSVKGRFTISRDNAKNTVYLQMNSLKPEDTAVYYCNAYDPYYGRRYDYWGQGTQVTVSS | low polyreactivity |

| Sequence | polyreactivity (PSR sort gate) |
| --- | --- |
| QVQLVESGGGLVQAGGSLRLSCAASGRIFYDYAMGWYRQAPGKEREFVAAIRWRGGSTYYADSVKGRFTISRDNAKNTVYLQMNSLKPEDTAVYYCATKSYYKFGYWGQGTQVTVSS | high polyreactivity |
| QVHLVESGGGLVQAGGSLRLSCAASGFTFDQNAMGWYRQAPGKERELVAAISIGGSTYYADSVKGRFTISRDNAKNTVYLQMNSLKPEDTAVYYCATRNIYFSSVDYWGQGTQVTVSS | high polyreactivity |
| QVQLVESGGGLVQAGGSLRLSCAASGSIFTTYAMGWSRQAPGKERELVAAISRSGGSTYSADSVKGRFTISRDNANYTVYLQKNSLKPEDTAVYYCNAVSRYTSDYEDDYWGLGTQVTVSS | high polyreactivity |
| QVQLVESGGGLVQAGGRLRLSCAASGSTFQQYGMGWYRQAPGKERELVAAISGGVSTYYADSLKGLFTISRDHAKNTVYLQMYSLKPEDTAVYYCNADTSYSEWGSWYYEYDYWGQGTQVTVSS | low polyreactivity |
| QVQLVESGGRLVQAGGSLRLSCAASGSIFYFNAMGWYRQAPGKERELVATISRRGGSTYYADSVKGRFTISRDNAKKTVYLQMNSLKPEDTAVYYCAADYYTLYPVYIKRYGYWGQGTQVTVSS | high polyreactivity |
| QVQLVESGGGLVQAGGSLRLSCAASGGTFRVYAMGWYRQAPVKERELVDAITWRGGRTYYADSVKGRFTISRDNAKNTDYFQMNSLKPEDPAVYYCAADRYGDLYDYWGQGTQVTVSS | high polyreactivity |
| QVQLVESGGGLVQAGGILRLSSAASGFTFGYYAMGWYRQAPGTQRELVAAINWSGGRTYYADSVKGRFTISRDNAKNTVYLQMNSLKPEDTAVYYCAADPKKGRQMYYWGQGTQVTVSS | high polyreactivity |
| QVQHVESGGGLVQAGGSLRLSCAASGSTLGGYAMGWSRQAPGKERELVAAISGSGGSTYYADSVKGRFTISRDNAKNSVYLQMNSLKPEDTAVYYCNAAVLGGIYRYYDYRYDYWGQGTQLTVSS | low polyreactivity |
| QVQLVESGGGLVQAGGSLRLSCAASGFTFPFYAMGWYRPAHRKERELVAAITASGGSTYYADSVKGRFTISRDNAKYTVYLQMNSLKPEDTAVYYCATSIYRGYYYWGQGTQVTVSS | high polyreactivity |
| QVQLQESGGGLVQAGGSLRLSCAASGSISGPQVMGWYRQAPGKEREFVAAINVGANTYYADNVKGRFTISRDNAKNTVYLQMTSLKPEDTAVYYCAAVYYGDIGHEYWGQGTQVTVSC | low polyreactivity |
| QDQLVESGGGLVQAGGSLRLSCAASGFIFYFYAMVWYRQAPGKERELVAAISSGGSTNYADSVKGRFTISRDNAKNTVYLQMNSLKPEDTAVYYCNKGGYYKYFLNDYNYWGQGTQVTVSS | low polyreactivity |
| QVQLVESGGGLVQAGGSLRLSCAASGRIFPLYAMGWYRQAPGKERELGAAISSGGTTYYADSVKGRFTISRDNAKNTVYLQMNSLKPEDTAVYYCARRPAQRWGRFDYWGQGTQVTVSS | low polyreactivity |
| QVHLVESVGGLVQAGGSLRLSCAASGGIFCVYAMGWYRQAPGKERELVAAISNSDTSTSYADSVKGRFTISRDNAKNTVYLQMNCLKPEVTAVYYCNADSPSLSGDYWGQGTQVTVSS | low polyreactivity |
| QVQLVESGGGLVQAGGSLRLSCAASGRIFPYNAMGWYRQAAGKERELVAAISLSGDSTYYADSVKGRFTISRDNAKNTVFLHMNSLKPEDTAVYYCNAPSYWYYPVLGSFLTFEYWGQGTQVTVSS | low polyreactivity |
| QVQLVESGGGLVQAGGSLRLSCAASGNTFYLYAMGWYRQAPGKEREFVAAITGNGGSTYYADSVKGRFTISRDNAKNTVYLQMNSLKPEDTEVYYCAATFWGYNQYDYWGQGTQVTVSS | high polyreactivity |
| QVQLVESGGGLVQAGRSLRISCAASGYTFIYYPMGWYRPAPGKERELVATISIDGSTNYADSVKGRFTISRDNAKNTVYLQMNILKPEDTAVYYCNLERYEDYDYWGQGTQVTVSS | high polyreactivity |
| QVQLVESGGGLVQAGGSLRLSCAASGSIYRYAMGWYRQAPGKERELVASISRRGGSTYYADSVKGRFTISRDNAKNTVYLQMNSLKPEDTAVYSCNAYGYSFGYDYWGQGTQVTVSS | high polyreactivity |
| QVKLVESGGGLVQAGGSLRLSWAASGSILNRYAMGWYRQAPGKERELVAAITGSSGSTYYADSVKGRFTISRDNAKNTVYLQMNSLKPEDTAVYYCATAFRNGRGSYYYWGQGTQVTVSS | high polyreactivity |
| QVQLVESAGGLLQAGGTLRLICAASGRIFTNYAMGWYRQAPGKERELVAAINWSGSRTFYADSVMGRFTISRDNAKYTVYLQLNSLKPEDTAVYSCAADALRKPKIALYDYWGQGTQVTVSS | high polyreactivity |
| QVQLVQSGGGLVQAGGSLRLSCAASGRIFVNNAMGWYIQAPGKERELVAAISVSGTTTYYADSVKGRFTISRDNAKNTVYLQMNSLKPEDTAVFYCAAEGSTYQGAPGVYYWGQGTQVTVSS | high polyreactivity |
| QVQLVESVGGLVQAGGSLRLSCAASGNNFDIYDMGWYRQAPGKERELVAAISSGGSTYYADSVKGRFTISRDTAKNTVYFQMNSLKPEDSAVYYCAESRVGYYRYEYWGQGTQVTVSS | low polyreactivity |
